Measured values taken from patent US20080213812.

Test system: Site C binding proteins, HeLa nuclear fraction (HA pool; LBP-1b and LBP-1c/LSF identified by MS) (Homo sapiens)
Assay: pulldown

Sequence	binding signal (fmol shifted per ug protein) (equivalent OBC column fraction, 6,300 units and 103 ug, four fold less Site C EMSA activity recovered than from Site C column)	binding signal (fmol shifted per ug protein) (oligo affinity column fraction, 25,332 units and 36.7 ug protein, activity assayed by Site C EMSA)
TCGCGGCGAGAGTTTCAGGCAGCGCTGCGT (double strand) [OBC oligo]	61.2	
TCGCGGCGCGAGTTTCAGGCAGCGCTGCGT (double strand) [Site C oligo (hTERT promoter)]		690
